In patent US20260184811A1 (CEREIUS, published 2026):
Where two headings read alike, the source gives them in different places. Values belong to the binder of their own block, whether it stands above or below them.

Assays:
human HER2 receptor [1] = biological target: T1, human HER2 receptor (human, UniProt P04626); assay: ELISA on human HER2 receptor, purified VHH titrated, A450
human HER2 receptor [2] = biological target: T1, human HER2 receptor; assay: as above; remark: listed apart in the source
human HER2 receptor [3] = biological target: T1, human HER2 receptor; assay: ELISA specificity panel on ErbB family receptors, VHH titrated, A450
human HER2 receptor [4] = biological target: T1, human HER2 receptor; assay: as above; remark: listed apart in the source
human HER2 receptor [5] = biological target: T1, human HER2 receptor; assay: as above; remark: listed apart in the source
human HER2 receptor [6] = biological target: T1, human HER2 receptor; assay: ELISA on human HER2 receptor, purified VHH titrated, A450; remark: listed apart in the source
human HER2 receptor [7] = biological target: T1, human HER2 receptor; assay: as above; remark: listed apart in the source
human HER2 receptor [8] = biological target: T1, human HER2 receptor; assay: as above; remark: listed apart in the source
human HER2 receptor [9] = biological target: T1, human HER2 receptor; assay: as above; remark: listed apart in the source
human HER2 receptor [10] = biological target: T1, human HER2 receptor; assay: as above; remark: listed apart in the source
human HER2 receptor [11] = biological target: T1, human HER2 receptor; assay: as above; remark: listed apart in the source

B1: VHH_118 (VHH)
VHH: EVQLVESGGGLVQPGGSLRLSCAASEFTFSNYAMSWVRQAPGKGLEWVSAINWSGGITTYADSVKGRFTISRDNAKNTLHLQMNSLKPEDTAVYYCAKGWGTTTRDTGLLSQGTLVTVSS
notes: also called VHH ID 118
EC50 (read off the curve) (human HER2 receptor [1]): ~6 nM

B2: VHH_109 (VHH)
VHH: QVQLVESGGGLVQPGGSLRLSCEASGFTFDDYGMSWVRQAPGKGLEWVSGITWNGGNPNYADSVKGRFTISRDNAKRTLYLQMNSLKAEDTAVYYCQRGYSRGYMYWGQGTQVTVSS
notes: also called VHH ID 109
EC50 (read off the curve) (human HER2 receptor [2]): ~10 nM

B3: VHH_130 (VHH)
VHH: EVQLVESGGGLVQAGGSLRLSCAASGITFSINTMGWYRQAPGKQRELVALISSIGDTYYADSVRGRFTISRDNAKNTVYLQMNSLKPEDTAVYYCRRFRTAAQGTDYWGQGTQVTVSS
notes: also called VHH ID 130
EC50 (read off the curve) (human HER2 receptor [3]): ~1 nM
EC50 (read off the curve) (human HER2 receptor [4]): ~1 nM
EC50 (read off the curve) (human HER2 receptor [5]): ~1 nM

B8: VHH_107 (VHH)
VHH: QVQLVESGGGLVQPGGSLRLSCAASGSIFSINVMGWYRQAPGMQRQLVAIITSGGSTNYADSVKGRFTVSRDNAKNTLYLRMNSLKPEDTAVYYCATIHVRESTWYYAYWGQGTQVTVSS
notes: also called VHH ID 107
EC50 (read off the curve) (human HER2 receptor [10]): ~3 nM

B9: VHH_108 (VHH)
VHH: QVQLVESGGGLVQAGGSLRLSCAASGRTFSSYAMGWFRQAPGLEREFVAAIARGGVSTGYADSVKGRFAISRDNAKNMVYLQMNSLKPEDTAVYYCATYFWGSPHYWGQGTQVTVSS
notes: also called VHH ID 108
EC50 (read off the curve) (human HER2 receptor [11]): ~6 nM

Other lines, results leading:

EC50 (read off the curve) (human HER2 receptor [6]): ~1 nM
B4: VHH_129 (VHH)
VHH: EVQLVESGGGLVQAGGSLRLSCAASGITFSINTMGWYRQAPGKQRELVALISSIGDTYYADSVKGRFTISRDNAKNTVYLQMNSLKPEDTAVYYCRRFRTAAQGTDYWGQGTQVTVSS
notes: also called VHH ID 129

EC50 (read off the curve) (human HER2 receptor [7]): ~1 nM
B5: VHH_134 (VHH)
VHH: EVQLVESGGGLVQAGGSLRLSCAASGITFSINTMGWYRQAPGKQRELVALISSIGDTYYADSVRGRFTISRDNARNTVYLQMNSLRPEDTAVYYCRRFRTAAQGTDYWGQGTQVTVSS
notes: also called VHH ID 134

binding result (human HER2 receptor [8]): no binding
B6: VHH_110 (VHH)
VHH: QVQLVESGGGSVQLGGSLRLSCAVSGLGFSALAMGWFRQAPGKERERVAAISRTGGTTYYTDSVKGRFTISRDNGKNMVYLQMNSLKPEDAAVYYCASRYTALLSTTARGYDYWGQGTQVTVSS
notes: also called VHH ID 110

binding result (human HER2 receptor [9]): no binding
B7: VHH_123 (VHH)
VHH: QVQLVESGGGLVQAGGSLRLSCAASGRTFNSYFYTMAWFRQAPGKEREFVARMNWNADSTYHADSVKGRFTISRENTVYLQMNSLEPEDTAVYYCAAKSISAPKYDYWGQGTQVTVSS
notes: also called VHH ID 123
